One block for each binder: values may come before it.
Key:
[1] = molecular target: T1, human protein S (derived from human serum; Enzyme Research Laboratories) (human, UniProt P07225 42-676); assay: ELISA: human protein S coated directly on the plate (2 µg/mL); biotinylated test antibody; streptavidin-HRP/TMB (Example 6, method of Example 5(5)) [F]
T1 construct: Homologue of Gas6 used as specificity control
T1 sequence (looked up): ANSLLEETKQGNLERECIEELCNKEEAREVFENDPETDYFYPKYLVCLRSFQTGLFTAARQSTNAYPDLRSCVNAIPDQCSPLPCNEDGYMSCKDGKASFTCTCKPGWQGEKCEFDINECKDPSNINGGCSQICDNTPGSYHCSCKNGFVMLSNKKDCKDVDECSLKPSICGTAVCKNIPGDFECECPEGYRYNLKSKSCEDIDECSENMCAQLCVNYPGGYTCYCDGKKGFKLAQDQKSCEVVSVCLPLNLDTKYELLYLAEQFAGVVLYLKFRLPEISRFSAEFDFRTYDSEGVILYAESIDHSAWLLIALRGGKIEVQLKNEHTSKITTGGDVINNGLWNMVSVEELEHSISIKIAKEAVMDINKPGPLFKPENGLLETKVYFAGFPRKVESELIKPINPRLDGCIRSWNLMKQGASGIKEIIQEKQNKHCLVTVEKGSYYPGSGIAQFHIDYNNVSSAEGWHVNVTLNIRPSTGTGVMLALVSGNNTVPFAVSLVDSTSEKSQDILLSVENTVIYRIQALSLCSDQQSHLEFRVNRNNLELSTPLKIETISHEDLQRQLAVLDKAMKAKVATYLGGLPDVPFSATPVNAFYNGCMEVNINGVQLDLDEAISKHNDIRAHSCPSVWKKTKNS
Description: First, a 2 μg/mL solution of the antigen (prepared from each antigen with PBS (manufactured by Nacalai Tesque, Inc.)) was dispensed at 50 μL/well to a 96-well plate for ELISA (manufactured by Nalge Nunc International), and the plate was left standing overnight at 4° C. for adsorption. The plate was washed five times with Tween 20-PBS. Then, 1% BSA-PBS (manufactured by Nacalai Tesque, Inc.) was added thereto at 300 μL/well, and the plate was left standing at room temperature for 1 hour for blocking and washed five times with Tween 20-PBS (manufactured by Wako Pure Chemical Industries Ltd.). Next, the hybridoma culture supernatant was dispensed thereto as a test substance at 50 μL/well, and the plate was left standing at room temperature for 1 hour and then washed five times with Tween 20-PBS. Next, polyclonal goat anti-mouse immunoglobulins/HRP (Dako Denmark A/S, P0447) diluted 2000-fold with 1% BSA-PBS was dispensed thereto at 50 μL/well, and the plate was left standing at room temperature for 1 hour. The plate was washed five times with Tween 20-PBS, and TMB (manufactured by Sigma-Aldrich Co. LLC) was added thereto at 50 μL/well and reacted. At an appropriate point in time, the reaction was terminated by the addition of 1 N hydrochloric acid (manufactured by Wako Pure Chemical Industries Ltd.) at 50 μL/well. The absorbance at a sample wavelength of 450 nm and a reference wavelength of 570 nm (450 nm-570 nm) was measured using a plate reader (Spectra Max, manufactured by Molecular Devices, LLC).
The binding activity of the obtained antibodies against human protein S was measured in the same way as in Example 5(5). […] The secondary detection reagent used was Streptavidin HRP Conjugate (manufactured by R&D Systems, Inc.) diluted 200-fold with 1% BSA-PBS.

[2] = molecular target: T2, C-terminally FLAG-tagged rat Gas6 recombinant protein (rGas6-F) (rat, UniProt Q63772 28-674, limits assumed, gamma-carboxylated glutamic acid residues in the Gla domain (producer cells co-express rat VKOR and human GGCX); positions not given); assay: ELISA: rGas6-F (1 µg/mL) captured on coated anti-FLAG M2 antibody; biotinylated test antibody; streptavidin-HRP/TMB; absorbance 450-570 nm, N=2 (Example 6) [C]
T2 construct: also called rat Gas6-F
T2 sequence (looked up): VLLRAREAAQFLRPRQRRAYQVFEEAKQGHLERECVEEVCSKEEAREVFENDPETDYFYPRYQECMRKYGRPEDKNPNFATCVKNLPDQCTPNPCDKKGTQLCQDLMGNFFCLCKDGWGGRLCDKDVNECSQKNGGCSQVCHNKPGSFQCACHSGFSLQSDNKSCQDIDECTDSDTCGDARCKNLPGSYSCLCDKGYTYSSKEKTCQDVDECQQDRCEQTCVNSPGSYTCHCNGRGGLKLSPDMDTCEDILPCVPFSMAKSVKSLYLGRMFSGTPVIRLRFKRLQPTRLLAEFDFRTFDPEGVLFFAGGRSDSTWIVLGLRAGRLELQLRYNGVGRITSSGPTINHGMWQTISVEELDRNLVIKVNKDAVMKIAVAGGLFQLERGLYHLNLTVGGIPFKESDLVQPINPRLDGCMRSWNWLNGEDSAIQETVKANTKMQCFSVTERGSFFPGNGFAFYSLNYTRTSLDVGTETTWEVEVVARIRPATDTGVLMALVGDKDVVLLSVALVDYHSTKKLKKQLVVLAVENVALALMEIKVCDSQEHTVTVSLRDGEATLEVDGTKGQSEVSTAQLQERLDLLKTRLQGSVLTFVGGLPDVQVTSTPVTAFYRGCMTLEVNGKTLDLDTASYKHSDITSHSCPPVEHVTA
Description: First, 2 μg/mL anti-FLAG antibody [Monoclonal ANTI-FLAG M2 antibody produced in mouse (manufactured by Sigma-Aldrich Co. LLC) diluted with PBS (manufactured by Nacalai Tesque, Inc.)] was dispensed at 50 μL/well to a 96-well plate for ELISA (manufactured by Nalge Nunc International), and the plate was left standing overnight at 4° C. for adsorption. After removal of the immobilization solution, 1% BSA-PBS (manufactured by Nacalai Tesque, Inc.) was added thereto at 300 μL/well, and the plate was left standing at room temperature for 1 hour for blocking and washed five times with Tween 20-PBS (manufactured by Wako Pure Chemical Industries Ltd.).
Each antibody solution was dispensed thereto at 50 μL/well, and the plate was left standing at room temperature for 1 hour. This plate was washed five times with Tween 20-PBS. Then, Streptavidin HRP Conjugate (manufactured by R&D Systems, Inc.) diluted 200-fold with 1% BSA-PBS was dispensed thereto at 50 μL/well, and the plate was left standing at room temperature for 1 hour. This plate was washed five times with Tween 20-PBS, and TMB (manufactured by Sigma-Aldrich Co. LLC) was added thereto at 50 μL/well and reacted. […] The absorbance at a sample wavelength of 450 nm and a reference wavelength of 570 nm (450 nm-570 nm) was measured using a plate reader.

binding result [1]: no binding (tested: 5 µg/mL)
EC50 (read off the curve) [2]: ~5 ng/mL
B1: anti-human Gas6 mouse monoclonal antibody KM5320 (KM5320-mKG1 antibody) (antibody, V domains shown)
VH: QIQLVQSGPELKKPGETVKISCKASGYTFTNYGMNWVKQAPGKGLKWMGWINTETGEPTYSDDFKGRFAFSLETSATTAYLQINNLRNEDMATYFCAREDGYYGTLDYWGQGTSVTVSS
VL: SIVMTQTPKFLLVSAGDRVTITCKASQSVSNDVAWYQQKPGQSPKVLIYYASNRYTGVPDRFTGSGYGTDFTFTISTVQAEDLAVYFCQQDYSSPWTFGGGTKLEIK
notes: Hybridoma-derived mouse IgG1, kappa; also called KM5320 antibody

binding result [1]: no binding (tested: 5 µg/mL)
EC50 (read off the curve) [2]: ~4 ng/mL
B2: anti-human Gas6 mouse monoclonal antibody KM5321 (KM5321-mKG1 antibody) (antibody, V domains shown)
VH: QIQLVQSGPELKKPGETVKISCRASGYTFTNYGMNWVKQAPGKGLKWMGWINTNTGEPTYTEEFKGRFAFSLETSATTAYLQINDLKNEDTATYFCARDEGWFVYWGQGTLITVSA
VL: ETTVTQSPASLSVATGEKVTIRCITSTDIDDDMNWYQQKPGEPPKLLISEGNTLRPGVPSRFSSSGYGTDFVFTIENTLSEDVADYYCLQTDSVPLTFGAGTKLELK
notes: Hybridoma-derived mouse IgG1, kappa; also called KM5321 antibody

— patent US20180339041A1 (Kyowa Kirin, published 2018)
